Values joined by “and” are separate entries in the source; they are usually repeats but may differ in a detail not shown here. Identical values can stand only once.
How the values were obtained:
[1] = target: central baseplate organization protein, gp11 (Vibrio phage XM1); test: cryo-EM structure; purified XM1 virions in SM buffer; 6-fold-symmetric reconstruction of the distal part of the extended tail (baseplate, part of tail tube and sheath), 3.2Å; interfaces analysed with PISA
[2] = target: collar spike protein, gp40 (Vibrio phage XM1); test: cryo-EM structure; purified XM1 virions in SM buffer; 6-fold-symmetric reconstruction of the portal and neck region and 12-fold-symmetric reconstruction of the portal, 3.6Å; interfaces analysed with PISA
[3] = target: dodecameric head completion protein, gp1 (Vibrio phage XM1); test: as above
[4] = target: hexameric head completion protein, gp4 (Vibrio phage XM1); test: as above
[5] = target: major capsid protein (MCP), gp54 (Vibrio phage XM1); test: cryo-EM structure; purified XM1 virions in SM buffer; icosahedrally averaged reconstruction of the capsid, 3.2Å
[6] = target: minor capsid protein (decoration protein, Dec), gp53 (Vibrio phage XM1); test: as above
[7] = target: portal protein, gp49 (Vibrio phage XM1); test: cryo-EM structure; purified XM1 virions in SM buffer; 6-fold-symmetric reconstruction of the portal and neck region and 12-fold-symmetric reconstruction of the portal, 3.6Å; interfaces analysed with PISA
[8] = target: tail sheath protein, gp6 (Vibrio phage XM1); test: cryo-EM structure; empty XM1 particles with contracted tail sheath (post-infection form); 6-fold-symmetric reconstruction, 9.1Å; models of the extended state fitted (Situs ddforge, Coot)
[9] = target: tail sheath protein, gp6 (Vibrio phage XM1); test: cryo-EM structure; purified XM1 virions in SM buffer; 6-fold-symmetric reconstruction of the distal part of the extended tail (baseplate, part of tail tube and sheath), 3.2Å; interfaces analysed with PISA
[10] = target: tail terminator protein, gp5 (Vibrio phage XM1); test: cryo-EM structure; purified XM1 virions in SM buffer; 6-fold-symmetric reconstruction of the portal and neck region and 12-fold-symmetric reconstruction of the portal, 3.6Å; interfaces analysed with PISA
[11] = target: tail tube protein, gp7 (Vibrio phage XM1); test: cryo-EM structure; purified XM1 virions in SM buffer; 6-fold-symmetric reconstruction of the distal part of the extended tail (baseplate, part of tail tube and sheath), 3.2Å; interfaces analysed with PISA

“central baseplate organization protein, gp11 (natural protein)” was tested, and the stoichiometry N [1] was 6.

“collar spike protein, gp40 (natural protein)” gave a stoichiometry N [2] of 3.

“dodecameric head completion protein, gp1 (natural protein)” was tested, and the stoichiometry N [3] was 12.

For “hexameric head completion protein, gp4 (natural protein)”, the stoichiometry N [4] was 6.

In the case of “major capsid protein (MCP), gp54 (natural protein)”, the stoichiometry N [5] is reported as 6 and 5.

“minor capsid protein (decoration protein, Dec), gp53 (natural protein)” gave a stoichiometry N [6] of 3.

For portal protein, gp49 (natural protein), the stoichiometry N [7] was 12.

Substance “tail sheath protein, gp6 (natural protein)” has a stoichiometry N [8] of 6 and a stoichiometry N [9] of 6.

For “tail terminator protein, gp5 (natural protein)”, the stoichiometry N [10] was 6.

Substance “tail tube protein, gp7 (natural protein)” has a stoichiometry N [11] of 6.
